Assay [1] addresses filamentous actin (F-actin) polymerized from G-actin purified from rabbit skeletal muscle (rabbit) (UniProt P68135).
Assay [2] has the same target. The source holds these as a separate data set.

“ABS optoCAST (ABS opto1: mCherry-AsLOV2(403-540)-ABS) (from UniProt O49003 403-540) (designed binder)” showed a percent activation of localisation to F-actin (0% inactive optoCAST, 100% ABM only) in live HeLa cells under blue light in assay [1] of 80%.
“ABS pepCAST (ABS pep6: SZ3-linker-ABS-linker-SZ4-eGFP) (designed binder)”: in assay [2], the percent activation of localisation to F-actin (0% inactive pepCAST, 100% ABM only) in live HeLa cells that co-express SZ21 is > 80%.

The values above are taken from PMC11239668.
